Reference: publication PMC10435448, “A RAD51–ADP double filament structure unveils the mechanism of filament dynamics in homologous recombination”

Target: hRAD51 wild-type (Homo sapiens, UniProt Q06609 1-339)
Assay: cryo-EM structure (3.1 A); 1 mM ADP, 5 mM CaCl2, 2.5 mM MgCl2; ssDNA density weak and diffuse; EMSA: 35 mM Tris-HCl pH 7.5, 1 mM DTT, 10 mM MgCl2, 100 ng/ul BSA, 50 mM KCl, 2 mM ADP, 37 C 10 min, 2% agarose TAE at 4 C; cryo-EM: 35 mM Tris-HCl pH 7.5, 108
Details: protein: recombinant; tags: none stated (pET11, untagged purification); chain copies: 10; single strand

Sequence of hRAD51 wild-type (Q06609 whole entry): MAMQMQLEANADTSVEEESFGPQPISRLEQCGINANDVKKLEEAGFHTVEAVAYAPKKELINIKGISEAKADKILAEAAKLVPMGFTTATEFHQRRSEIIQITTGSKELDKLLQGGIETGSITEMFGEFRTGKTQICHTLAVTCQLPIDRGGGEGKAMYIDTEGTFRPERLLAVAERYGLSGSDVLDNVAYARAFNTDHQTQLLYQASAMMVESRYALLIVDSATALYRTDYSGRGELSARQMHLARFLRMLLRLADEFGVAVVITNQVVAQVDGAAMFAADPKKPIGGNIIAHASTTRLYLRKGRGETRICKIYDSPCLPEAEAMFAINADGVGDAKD

B1: Oligo 1 (80 nt ssDNA), unlabeled (ssDNA)
DNA: TTATGTTCATTTTTTATATCCTTTACTTTATTTTCTCTGTTTATTCATTTACTTATTTTGTATTATCCTTATCTTATTTA
B1: binds.
